Measurements as given in doi:10.1101/2023.05.26.542392.

Target: Full-length SARS-Cov-2-Nucleocapsid (FLN), WT (SARS-CoV-2)
Assay: AUC

Substance: Full-length SARS-Cov-2-Nucleocapsid (FLN), WT (natural protein)
- stoichiometry N: 2
